Reference: article PMC6318249, “DNA Binding and Phosphorylation Regulate the Core Structure of the NF-κB p50 Transcription Factor” (Journal of the American Society for Mass Spectrometry, 2018)
Each block holds one molecule with its values, some of them ahead of it.

Experiments:
[1] = molecular target: Murine NF-κB p50 (39-364) S65D (murine) (UniProt P25799); assay: native MS; native IM-MS of p50 (39-364) WT and Ser to Asp variants, no DNA; 100 mM NH4OAc, typically 5 μM; percentage peak areas of monomer and dimer by multi-Gaussian fitting
[2] = molecular target: Murine NF-κB p50 (39-364) S242D (murine) (UniProt P25799); assay: as above
[3] = molecular target: Murine NF-κB p50 (39-364) S248D (murine) (UniProt P25799); assay: as above
[4] = molecular target: Murine NF-κB p50 (39-364) S337D (murine) (UniProt P25799); assay: SEC; size exclusion chromatography of p50 (39-364); monomer measured by protein staining and densitometry
[5] = molecular target: Murine NF-κB p50 (39-364) S337D (murine) (UniProt P25799); assay: native MS; native IM-MS of p50 (39-364) WT and Ser to Asp variants, no DNA; 100 mM NH4OAc, typically 5 μM; percentage peak areas of monomer and dimer by multi-Gaussian fitting
[6] = molecular target: Murine NF-κB p50 (39-364) wild-type (murine) (UniProt P25799); assay: as above
[7] = molecular target: p50 (35-381, Enzo Scientific) 35-381 (UniProt P19838); assay: native nESI-MS, monomer:dimer ratio, no DNA; conditions: reference: p50 before phosphorylation; sites S328,S337
[8] = molecular target: p50 (35-381, Enzo Scientific) 35-381 (UniProt P19838); assay: native nESI-MS, monomer:dimer, with κB DNA; conditions: reference: non-phosphorylated p50 plus DNA; sites S328,S337
[9] = molecular target: the molecule itself; assay: native MS; nano-ESI native MS of p50 (35-381) before and after in vitro phosphorylation with PKAc or Chk1; 100 mM NH4OAc, typically 5 μM; without and with the κB DNA oligomer; monomer and dimer charge states compared
p50 S248D = p50 S248D (Mus musculus, UniProt P25799 39-364, S246D); assay: native MS titration; KD: 3 uM p50 with 0.2-6 uM DNA in 300 mM NH4OAc, 5 min, room temperature, 10 uL, pH not stated; native nESI-(IM-)MS; conditions: protein: recombinant; tags: His6-MBP removed by 3C protease; chain copies: 2; blunt; strand is self-complementary
p50 WT = p50 WT (Mus musculus, UniProt P25799 39-364); assay: as above; conditions: protein: recombinant; tags: His6-MBP removed by 3C protease; chain copies: 2; blunt; strand is self-complementary
p50 S65D = p50 S65D (Mus musculus, UniProt P25799 39-364, S63D); assay: as above; conditions: protein: recombinant; tags: His6-MBP removed by 3C protease; chain copies: 2; blunt; strand is self-complementary
p50 S242D = p50 S242D (Mus musculus, UniProt P25799 39-364, S240D); assay: as above; conditions: protein: recombinant; tags: His6-MBP removed by 3C protease; chain copies: 2; blunt; strand is self-complementary
p50 S337D = p50 S337D (Mus musculus, UniProt P25799 39-364, S335D); assay: as above; conditions: protein: recombinant; tags: His6-MBP removed by 3C protease; chain copies: 2; blunt; strand is self-complementary
p50 S337D, sequence (P25799 39-364 S335D): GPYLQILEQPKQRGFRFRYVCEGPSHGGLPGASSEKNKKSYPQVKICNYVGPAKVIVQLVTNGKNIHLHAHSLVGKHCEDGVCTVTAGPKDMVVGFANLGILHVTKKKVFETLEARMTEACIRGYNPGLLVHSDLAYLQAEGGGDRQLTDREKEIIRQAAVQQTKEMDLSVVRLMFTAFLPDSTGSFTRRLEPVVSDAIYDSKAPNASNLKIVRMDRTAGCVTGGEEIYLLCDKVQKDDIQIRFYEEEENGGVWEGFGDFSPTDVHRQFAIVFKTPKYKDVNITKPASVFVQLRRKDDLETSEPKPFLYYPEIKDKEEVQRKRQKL

p50 WT, sequence (P25799 39-364): as the sequence (P25799 39-364 S335D) above, with D297S counted along it
p50 S242D, sequence (P25799 39-364 S240D): as the sequence (P25799 39-364 S335D) above, with S202D, D297S counted along it
p50 S248D, sequence (P25799 39-364 S246D): as the sequence (P25799 39-364 S335D) above, with S208D, D297S counted along it
p50 S65D, sequence (P25799 39-364 S63D): as the sequence (P25799 39-364 S335D) above, with S25D, D297S counted along it

percentage peak area of dimer [1]: 90.6%
percentage peak area of monomer [1]: 9.4%
stoichiometry N [1]: 2
Molecule: Murine NF-κB p50 (39-364) S65D (from UniProt P25799 39-364) (domain or fragment)

percentage peak area of dimer [2]: 87.6%
percentage peak area of monomer [2]: 12.4%
stoichiometry N [2]: 2
Molecule: Murine NF-κB p50 (39-364) S242D (from UniProt P25799 39-364) (domain or fragment)

percentage peak area of dimer [3]: 94.2%
percentage peak area of monomer [3]: 5.8%
stoichiometry N [3]: 2
Molecule: Murine NF-κB p50 (39-364) S248D (from UniProt P25799 39-364) (domain or fragment)

fold increase in monomer relative to WT p50 [4]: 5 fold
percentage peak area of dimer [5]: 74.8%
percentage peak area of monomer [5]: 25.2%
stoichiometry N [5]: 2
Molecule: Murine NF-κB p50 (39-364) S337D (from UniProt P25799 39-364) (domain or fragment)

percentage peak area of dimer [6]: 89.5%
percentage peak area of monomer [6]: 10.5%
stoichiometry N [6]: 2
Molecule: Murine NF-κB p50 (39-364) wild-type (from UniProt P25799 39-364) (domain or fragment)

binding against the reference [7]: weaker
Molecule: p50 (35-381, Enzo Scientific) 35-381 (from UniProt P19838) PKAc-phosphorylated p50

binding against the reference [8]: same
Molecule: p50 (35-381, Enzo Scientific) 35-381 (from UniProt P19838) PKAc-phosphorylated p50 plus DNA

B1: NF-κB p50 (35-381), non-phosphorylated (domain or fragment, UniProt P19838 35-381, looked up)
chain: MALPTDGPYLQILEQPKQRGFRFRYVCEGPSHGGLPGASSEKNKKSYPQVKICNYVGPAKVIVQLVTNGKNIHLHAHSLVGKHCEDGICTVTAGPKDMVVGFANLGILHVTKKKVFETLEARMTEACIRGYNPGLLVHPDLAYLQAEGGGDRQLGDREKELIRQAALQQTKEMDLSVVRLMFTAFLPDSTGSFTRRLEPVVSDAIYDSKAPNASNLKIVRMDRTAGCVTGGEEIYLLCDKVQKDDIQIRFYEEEENGGVWEGFGDFSPTDVHRQFAIVFKTPKYKDINITKPASVFVQLRRKSDLETSEPKPFLYYPEIKDKEEVQRKRQKLMPNFSDSFGGGSGAG
notes: NF-κB p50, the proteolytic product of p105 (NF-κB1), residues 35-381; also called recombinant p50 (35-381); source: bought: Enzo Scientific
stoichiometry N [9]: 2

B2: kB DNA oligomer (KD determination) (dsDNA)
DNA 1: CCCCCGGGGGCCCCCGGGGG
DNA 2: CCCCCGGGGGCCCCCGGGGG
Kd (p50 S248D): 112 ± 11 nM
Kd (p50 WT): 37 ± 7 nM
Kd (p50 S65D): 140 ± 16 nM
Kd (p50 S242D): 424 ± 78 nM
Kd (p50 S337D): 111 ± 15 nM
